Data: the supplement of paper PMC12042874
± gives the uncertainty stated by the source.

Assay: amyloid nucleation score (Sup35N fusion, yeast selection) (log enrichment); library NNK2; higher = more nucleation; inactive = no reads after selection
Outline: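 The nucleation score, computed with DiMSum, is the log enrichment of output over input reads, centred on the mode score of non-aggregating sequences. Sequences with under 100 input reads were dropped. Reads were generated by Illumina sequencing of plasmid inserts from psi-negative yeast with Sup35N fused to peptides of 20 random codons, induced with 100 μM copper sulfate for 24 hours and grown 7 days at 30°C on medium lacking adenine and uracil.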

| Substance | amyloid nucleation score |
| --- | --- |
| NWMHC | 1.39 ± 0.42 |
| NWNVRRYVTPAFEFRGCV | 0.833 ± 0.74 |
| NWPNPVSLMSRIDFRMV | -0.131 ± 0.31 |
| NWSHELQIQLCAMAYREWSE | 5.777 ± 0.038 |
| NWSNLEWWL | 0.054 ± 0.77 |
| NWVSIEHNYIFVLRYPENAS | 8.465 ± 0.042 |
| NYAPGFTWFSMTNKKDFNVS | inactive |
| NYCRTIFYYCAMIYFPCLAE | 1.77 ± 0.22 |
| NYDSSDLTLFDVSRRPLLER | inactive |
| NYFGKLLWLSLHDTCIVTF | inactive |
| NYVCWISGTTGLVM | -0.319 ± 0.76 |
| NYWWYVPW | 0.527 ± 0.51 |
| NYYCFQIRMLENNEEVFGIG | inactive |
| PAERSCGQCFQEFSWY | 0.102 ± 1.1 |
| PATVVILS | 1.23 ± 0.45 |
| PCLMVIRRWMITVFYQKLSG | 0.181 ± 0.2 |
| PCLRKNRYRLWLYTMVIQTQ | 0.806 ± 0.32 |
| PCRVYHLCNYKLAWRKGGWL | 0.927 ± 0.2 |
| PCSRPTLLPCHCGTTTTSHI | 2.4 ± 0.1 |
| PCVLKLRSSSKSISCSWGVS | 3.85 ± 0.074 |
| PDFLAVGHVSTFVHFTVETG | 1.16 ± 0.38 |
| PDLCEFLMLYMMITLNFCIN | -0.214 ± 1 |

| Substance | amyloid nucleation score |
| --- | --- |
| PEKTFICCLAVRDMQNRGVS | -0.032 ± 1.1 |
| PFILLGTPELVTNGEHAERG | 0.647 ± 0.66 |
| PFPSPSDSGTVAA | 0.737 ± 0.54 |
| PFQVFILHYA | 6.356 ± 0.042 |
| PGHSWMMSDDPDRYMNNLTV | -0.053 ± 0.79 |
| PGTFFSLSKWWFIDGVTEPG | 0.178 ± 0.77 |
| PGYNSFLWWAAME | -0.271 ± 0.34 |
| PHDGRNWFSVSDLMIGSDVG | 0.505 ± 0.36 |
| PHLEGVSCVVVKHQLRS | 0.82 ± 0.17 |
| PHSLVLSGWHNLDAFFNATL | inactive |
| PHVRTFRRFRWMY | -0.251 ± 0.39 |
| PIDKSVAVLDRREMSDQRIN | -0.753 ± 0.34 |
| PILGGEFDAGWRNFLFWKGW | 0.448 ± 0.66 |
| PIYCINRFDNWYLL | 5.94 ± 0.041 |
| PKGNSRYMRLIFDAQLSYTG | 1.25 ± 0.13 |
| PKIMKFGKCYTP | 0.065 ± 0.28 |
| PKPLVGMLCCHSMTRGKVTL | 3.28 ± 0.07 |
| PKSHFSRFGYYKVFQRSGRS | -0.92 ± 1.1 |
| PKSYWLSISRLKPVSQYYLR | 1.21 ± 0.24 |
| PLDGEIRREHVLAYEE | -0.454 ± 0.48 |
| PLHHSLRTYVALGLR | 0.306 ± 0.65 |
| PLHRWLQDR | -0.037 ± 0.79 |

| Substance | amyloid nucleation score |
| --- | --- |
| PLLFTWAVLINALWVKSTPG | -0.19 ± 1 |
| PLVAMGMIINNI | -1.74 ± 0.48 |
| PLYEELVWGRFRLMVYTGRF | -0.193 ± 0.76 |
| PMFCSLVLRI | -0.383 ± 0.41 |
| PMRMKFCQWLFHPP | -0.983 ± 0.61 |
| PNGFVFSCNRSPMAGMGIDE | -2.14 ± 1.1 |
| PNMGLVNCRRNFCCRLWRIC | -0.469 ± 1.1 |
| PNNINRFRRSYFY | -1.14 ± 0.49 |
| PNSSNPNPMRLVFRSMSFRL | 0.269 ± 0.64 |
| PNVCKLYMWQFGTLNQAPQR | 8.399 ± 0.065 |
| PPVMFLRWCVQAGSPWTNHC | -0.105 ± 1.1 |
| PQVNPYLNLCRLTQDMLLHR | 0.832 ± 0.15 |
| PRKDLPEYSLYSDLEPLVCN | -1.25 ± 0.62 |
| PRLNISLVMCNMFVGRGRFH | 8.705 ± 0.039 |
| PRRNTADCIGCTDRTGRRRC | 0.6 ± 0.39 |
| PRVRSAVQSLRGVKYCLGRR | -0.531 ± 0.63 |
| PSCFQDYKWQMWQLTRAWNF | -0.758 ± 0.55 |
| PSGFRSLLFEVHHFSRWAYD | 0.691 ± 0.15 |
| PSKPC | -1.72 ± 0.75 |
| PSLTVPGVSRYCFS | -1.29 ± 0.75 |
| PSLVRRNTSLCL | 0.325 ± 0.41 |
| PSVFEGRK | -0.843 ± 0.63 |

| Substance | amyloid nucleation score |
| --- | --- |
| PSVKIRFQVAYWLYRSLMMS | 0.877 ± 0.55 |
| PTRKSIYSLPRARSLIPQNT | -1.26 ± 1.1 |
| PTSNPSQRSRQRHQ | 0.619 ± 0.81 |
| PTSWFRSNMKWFYPVSQPHW | -0.434 ± 0.64 |
| PTVSLKDISGWIKPVRYLNG | 0.26 ± 0.25 |
| PVIQYVTSG | -0.257 ± 0.5 |
| PVLCVYFSIYN | 8.151 ± 0.054 |
| PVLTYFKLQLMM | 2.23 ± 0.066 |
| PVSGGVNFNNRLLITWRAFW | 0.885 ± 0.58 |
| PWYLRVSEHHKPWEPENWG | 0.552 ± 0.32 |
| PYWFRFLSYVQMLEYFCAPV | -0.764 ± 0.36 |
| PYYKAGGYMVMVHLSRLFLL | -0.882 ± 0.47 |
| QCAVDSPYDIRKLRR | -0.086 ± 0.39 |
| QCGGIGFLILLNVCGDGLWI | 4.37 ± 0.092 |
| QCVKLNTNVLCTVSDYNARG | 1.2 ± 0.11 |
| QCYIVCFICSRYTNQVKLLY | 1.38 ± 0.14 |
| QDKYTSEECESRFVTYETVV | 0.695 ± 0.57 |
| QEVSIKSFLRKYLLCYTMML | -1.05 ± 0.44 |
| QFFRPRDVRERAEWNLAKLV | 2.61 ± 0.12 |
